The record followed here is US20190071490A1, “Preventing Post-Ictal Headaches” (Beth Israel Deaconess Medical Center, Inc., priority 2017, published 2019).

T1: human α-CGRP (Homo sapiens, UniProt P06881)
T1 construct: 1-37 (WT); purchased GenScript Corporation or Global Peptide Services
T1 sequence (P06881 83-119 limits assumed): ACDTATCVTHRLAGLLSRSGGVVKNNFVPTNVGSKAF

T2: rat α-CGRP (Rattus norvegicus, UniProt P01256)
T2 construct: rat α (1-37); purchased GenScript Corporation or Global Peptide Services
T2 sequence (P01256 83-119 limits assumed): T1 sequence (P06881 83-119 limits assumed) with A1S, D3N, N25D, K35E

B1: M37: G1 variant; L1 R28N T30S; H2 A57G; HC-FW3 L99T A100V (antibody, V domains shown)
VH: EVQLVESGGGLVQPGGSLRLSCAASGFTFSNYWISWVRQAPGKGLEWVAEIRSESDGSATHYAEAVKGRFTISRDNAKNSLYLQMNSLRAEDTAVYYCTVYFDYGLAIQNYWGQGTLVTVSS
VL: EIVLTQSPATLSLSPGERATLSCKASKNVSTYVSWYQQKPGQAPRLLIYGASNRYLGIPARFSGSGSGTDFTLTISSLEPEDFAVYYCSQSYNYPYTFGQGTKLEIK
B2: M45: G1 variant; L1 R28N; L2 G50A L56T; H2 E54K A57N S58E E64D; HC-FW3 L99T A100V (antibody, V domains shown)
VH: B1 VH with E54K, G57N, S58E, E64D
VL: B1 VL with S30T, G50A, L56T
B3: M40: G1 variant; L1 R28N; L2 G50A L56T; H2 E54K A57L; HC-FW3 L99T A100V (antibody, V domains shown)
VH: B1 VH with E54K, G57L
VL: B1 VL with S30T, G50A, L56T
B4: M41: G1 variant; L1 R28N; L2 G50A L56T; H2 E54K A57N E64D; HC-FW3 L99T A100V (antibody, V domains shown)
VH: B1 VH with E54K, G57N, E64D
VL: B1 VL with S30T, G50A, L56T
B5: M43: G1 variant; L1 R28N; L2 G50A L56T; H2 E54K A57N S58C; HC-FW3 L99T A100V (antibody, V domains shown)
VH: B1 VH with E54K, G57N, S58C
VL: B1 VL with S30T, G50A, L56T
B6: M42: G1 variant; L1 R28N; L2 G50A L56T; H2 E54K A57N H61F; HC-FW3 L99T A100V (antibody, V domains shown)
VH: B1 VH with E54K, G57N, H61F
VL: B1 VL with S30T, G50A, L56T
B7: M44: G1 variant; L1 R28N; L2 G50A L56T; H2 E54K A57N S58E; HC-FW3 L99T A100V (antibody, V domains shown)
VH: B1 VH with E54K, G57N, S58E
VL: B1 VL with S30T, G50A, L56T
B8: M38: G1 variant; L1 R28N T30W; HC-FW3 L99T A100V (antibody, V domains shown)
VH: B1 VH with G57A
VL: B1 VL with S30W
B9: M39: G1 variant; L1 R28N; L2 G50A L56T; H2 A57N S58Y; HC-FW3 L99T A100V (antibody, V domains shown)
VH: B1 VH with G57N, S58Y
VL: B1 VL with S30T, G50A, L56T

Positions count from the first letter of the chain named. Names and notes keep the numbering of the source.

For one test, the target named is T1, human α-CGRP. Nature of the test: Biacore SPR affinity of Fab fragments to N-biotinylated human α-CGRP on SA chip. The class given is binding. Conditions: 37° C., screening mode except underlined values. Put shortly:
(§1)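 HBS-EP pH 7.4 running buffer at 25° C. or 37° C.; N-biotinylated CGRP captured on streptavidin SA chip (<50 RU for kinetics), Fab titrated over surface with regeneration by 25 mM NaOH/25% ethanol. Titrations globally fit to 1:1 Langmuir model; KD=koff/kon, with 2-hour dissociation for very slow off-rates.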
For orientation: In SPR one partner is held on a chip, and binding of the other changes the refractive index at the surface.
B1: the “α-human koff” value was determined as 0.000226 s⁻¹.

B2: the “α-human koff” value worked out at 0.000211 s⁻¹.

B3: the “α-human koff” value was 0.00128 s⁻¹.

B4: the “α-human koff” value came out at 0.00021 s⁻¹.

As to B5, the “α-human koff” value worked out at 0.000263 s⁻¹.

As to B6, the “α-human koff” value is 0.000417 s⁻¹.

As to B7, the “α-human koff” value was determined as 0.00021 s⁻¹.

As to B8, the “α-human koff” value stood at 0.000218 s⁻¹.

For the molecule B9, the “α-human koff” value stood at 0.000425 s⁻¹.

In another test the target is T2, rat α-CGRP. Nature of the test: Biacore SPR affinity of Fab fragments to N-biotinylated rat α-CGRP on SA chip. It is filed as binding. Conditions: 37° C., screening mode except underlined values. The method in brief:
as §1
B1: the “α-rat koff” value was determined as 0.00145 s⁻¹.

For the molecule B2, the “α-rat koff” value was found to be 0.00558 s⁻¹.

For B3, the “α-rat koff” value is 0.36 s⁻¹.

As to B4, the “α-rat koff” value stood at 0.00453 s⁻¹.

For B5, the “α-rat koff” value turned out to be 0.00453 s⁻¹.

On to B6, for which the “α-rat koff” value was found to be 0.00752 s⁻¹.

B7: the “α-rat koff” value came out at 0.00613 s⁻¹.

For the molecule B8, the “α-rat koff” value worked out at 0.00511 s⁻¹.

Consider B9, for which the “α-rat koff” value is 0.00995 s⁻¹.
